Data: patent US20120034604A1

Target: polyclonal anti-QRFSR antibody 3RBF-SAB
Assay: competitive ELISA: free Opiorphin against coated Y-(PE)12-QRFSR for antibody 3RBF-SAB

## QRFSR [Opiorphin QRFSR-peptide]
  IC50: 0.03 µg/mL
